Data from paper PMC9166766.

Target: GAL4 DBD-tagged VIVIT PPTP chimeric peptide
Test: two-hybrid; mammalian two-hybrid in HEK293T cells: GAL4 DBD-tagged peptides, VP16 activation domain-tagged CNAβ2 and pG5-luc cotransfected for 24 h, luciferase read-out; Fig. 4b with or without 1 μM ionomycin

fold change of the two-hybrid signal against L-1-2 WT: 1.93 fold
fold change of the two-hybrid signal against VIVIT 10-mer: 4.76 fold
Substance: VP16 activation domain-tagged CNAβ2
